Source: article PMC9484696, “Identification of Aedes aegypti salivary gland proteins interacting with human immune receptor proteins” (PLoS Neglected Tropical Diseases, 2022)

Biological target: T1, ectodomain of human CD4 (26-396 amino acid residues), recombinant (human, UniProt P01730 26-396)
T1 construct: CD4, human, ectodomain, residues 26-396; Cloned into pfastbac1 with the GP64 signal peptide for secretion and a preScission protease site; also called recombinant CD4; CD4 protein
Experiment: ELISA; 5 μg salivary gland protein coated overnight at 4°C on high binding 96-well plates, blocked with 1% BSA in PBST; 1 μg CD4 or DC-SIGN ectodomain added at 37°C for 1 h; detected with rabbit anti-CD4 or HRP anti-DC-SIGN monoclonal antibody, TMB, read at 450 nm
Conditions: both partners purified

B1: recombinant Ae. aegypti venom allergen 1 (AaVA-1) (natural protein, Aedes aegypti, UniProt A0A1S4EWW7 22-255, looked up)
chain: NYCDQSLCRRGPHVACNAPTQFGSACGQEPKFVKMDARMKNLLLKKHNELRAEIACGKHGFPQAARMPTLVWDDELAHIASFNARKCIFAHDKCRNTREFKFAGQNLAITAFAGYNFQAADRAENFTQEWFNEHKDCPKSYVDSYPMSHSGPQIGHFTQMVNDRAWKMGCSMVHYKNGRVIKYYLVCNYSMTNMIEEPIYTRGSAGSKCQTGQNPQYRGLCSPREKVRSESYRG
notes: Made with the GP64 signal peptide, so its own signal peptide was probably left out; also called AVAa-1
B1: binds.
